Measurements taken from the RNAGym collection of RNA variant scans (doi:10.1073/pnas.2313332121).
This sample holds only a part of the variants without activity.

B1: TPR 5TU (parent)
chain: GGAUCUUCUCGAUCUAACAAAAAAGACAAAUCUGCCACAAAGCUUGAGAGCAUCUUCGGAUGCAGAGGCGGCAGCCUUCGGUGGCGCGAUAGCGCCAACGUUCUCAACUAUGACACGCAAAACGCGUGCUCCGUUGAAUGGAGUUUAUCAUG

Variants of: B1
Assay: polymerase ribozyme fitness, log enrichment relative to wild type (log ratio); higher = more active; in vitro selection for triplet polymerase activity
In short: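 Mutant libraries of both subunits of a heterodimeric triplet polymerase ribozyme were PCR-built, transcribed, and selected once in triplicate, with frozen incubation at −7 °C and capture of gel-excised extended constructs on streptavidin beads before RT-PCR. Illumina sequencing of input and output libraries was filtered to genotypes with ≥10 input reads and ≥1 read per output. Fitness is the logarithm of genotype enrichment over wild-type enrichment, using inverse-variance-weighted replicate averages. The logarithm is base 2.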

Variant	polymerase ribozyme fitness (log ratio)
GGAUCUUCUCGGUCUAACAAAAAAGACAAAUCUGCCACAAAGCUUGAGAGCAUCUUCGGAUGCAGAGGAGGCAGCCUUCGGUGGCGCGAUAGCGCUAACGUUCUCAACUAUGACACGCAACACGCGGGCUCCGUUGAAUGGAGUUUUUCAUG	-4.02
GGAUCUUCUCGGUCAAACAAAAAAGACAAAUCUGCCACAAAGCUUGAGAGCAUCGUCGGAUGCAGAGGCGGCAGCCUUCGGUGGCGGGAUAGCGCCAAGGUUCUCAACUAUGAAACGCUAAACGCGUGCUCCGUUGAAUGGAGUUUAUCAUG	≤ -4.2
GGAUCUUCUCGGUCUAACAAAAAAGACAAAUCUGCCACAAAGCUUGAGAGCAUCUUCGGAUGCAGAGGCGGCAGCCUUCGGUGGCGCCAUAGCGCCAACGUUCUCAACUAUGACACGCAAAACGCGUGCUCCGUUGAAUGGAGUUUAUCAUG	-3.71
GGAUCUUCUCGGUCUAACAAAAAAGACAAAUCCGCCACAAAGCUUGAGAGCAUCUUCGGAUGCAGAGGCGGCGGCCUUCGGUGGCGCGAUAGCGCCAACGUUCUCAACUAUGACACGCAAAACGCGUGCGCCGUUGAAUGGAGUUUAUCAUG	-3.56
GGAUCUUCUCGGGCUAACAAAAAAGACAAAUCUGCCACAAAGCUUGAGAGCAUCUUCGGAUGCAGAGGCGGCAGCCUUCGGUGGCGCGAUAGCGCCAACGUUCUCAACUAUGACACGCAAGACGCGUGCUCCGUUGAAUGGAGUUUAUCAUG	-2.27
GGAUCUUCUCGGUCUAACAAAAAAGACAAAUCUGCCACAAAGCUUGAGAGCAUCUUCGGAUGCAGAGGCGGCAGCCUUCGGUGACGCGAUAGCGCCAACGUUCUCAACUAUGACACGCAAAACGCGUGCUCCGUUGAAUGGAGUUUAUCAUG	-0.68
GGAUCUUCUCGGUCGAACAAAAAAGACAAAUCUGCCACAAAGCUUGAGAGCAUCUUCGGAUGCAGAGGAGGCAGUCUUCGGUGGCGCGAUAGCGCCAACGUUCUCGACUAUGACACGCAGAACGCGUGCUCCGUUGAAUGGAGUUUAUCAUG	-2.52
GGAUCUUCUCGGUCUAACAAAAAAGACAAAUCUGCCACAAAGCUUGAGAGCAUCUUCGGAUGCAGAGGCGGCAGCCUUCGGUAGCGCGAUAGCGCCAACGUUCUCAACUAUGACACGCAAAACGCGUGCUCCCUUGAAUGGAAUUGAUCAUG	-3.34
GGAUCUUCUCGGUCUAACAAAAAAGACAAAUCUGCCACAAAGCUUGAAAGCAUUUUCGGAUGCAGAGGCGGCAGCCUUCGGUGGGGCGAUAGCGCCAACGUUCUCAACUAUGACACUCAAAACGCGUGCUCCGUUGAAUGGAGUUUAUCAUG	-2.26
GGAUCUUCUCGGUCUAACAAAAAAGACAAAUCUGCCACAAAGCUAGAGAGCAUCUUGGGAUGCAGAGGCGGCAGCCUACUGUGGCGCGAUAGCGCCAACGUUAUCAACUAUGACACGGAAAACGCGUGCUCCGUUGAAUGGAGUUUAUCAUG	≤ -4.2
GGAUCUUCUCGGUCUAACAAAAAAGACAAAUCUGCCACAAAGCUUGAGAGCAUCUUCGAAUGCAGAGGCGGCGGCCUUCGGUGGCGCGAUGGCGCCAACGUUCUCAACUAUGACACGCAAAACGCGUGCUCCGUUGAAUGGAGUUUAUCAUG	-2.71
GGAUCUUCUCGGUCUAACAAAAAAGACAAAUCUGCCACAAAGCUUGAGAGCAUCUUCAGAUGCAGAGGCGGCAGCCUUCGCUGACGCGAUAGCGCCAACGUUCUCAACUAUGACACGCAAAACGCGUGCUCCCUUGAAUGGAGGUUAUCAUG	-1.22
GGAUCUUCUCGGUCUAACAAAAAAGACAAAUCUGCCACAAAGCUUGAGAGCAUCUUCGGAUGCAGAGGCGGUAGCCUUCGGUGGCGCUAUAGCGCCAACGUUCUCAACUAUGACACGCAUAACGCGUGCUCCGUUGAAUGUAGUUUAUCAUG	≤ -4.2
GGAUCUUCUCGGUCUAACAAAAAAGACAAAUCUGCCACAAAACUUGAGAGCAUCUUCGGAUACAGAGGCGGCAGCCUUCGGUGGCGCGAUAGCGCCAACGCUCUGAACUAUGACACGCAAAACGCGUGCUCCGGUGAAUGGAGUUUAUCAUG	≤ -4.2
GGAUCUUCUCGGUCUAACAAAAAAGACAAAUCUGCCACAAAGCUUGAGAGCAUCUUCGGAUGCAGAGGCGGCAGCCUUCGGUGGCGCGAUAGGGCCAACGUUCUCAACUAUGACACGCAAAACGCGUGCUCCGUUGAAUGGAGUUUAUCAUG	-2.99
GGAUCUUCUCGGUCUAACAAAAAAAACAAAUCUGCCACAAAGCUUGAGAGCAUCUUCGGAUGCAGAGGCGGCAGCCUUCGGUGGCGGGAUAGCGCCAACGUUCUCAACUAUGACAAGCAAAACGCGUGCUCCGUUGAAUGGAGUUUAGCAUG	≤ -4.2
GGAUCUUCUCGGUCUAACAAAAAAGACAAAUCUGCCACAAAGCUUGAGAGCAUCUUCGGAUGCAGAGGCGGCAGCCUUCGGUGGCGCGAUAGCGCUAACGUUCUCAACUAUGACACGCAAAACGCGUGCUCCGUUGAAUGGAGUUUAUCAUG	-0.793
GGAUCUUCUCGGUCUAACAAAAAAGACAAAUCUGCCACAAAGCUUGAGAGCAUCUUCGGAUGCAGAGGCGGCAGCCUUCGGUGGCGAGAUAGCGCCAACGUUCUCAACUAUGACACGCAAAACGCGUGCUCCGUUGAAUGGAGUUUAUCAUG	≤ -4.2
GGAUCUUCUCGGUCUAACAAAAAAGACAAAUCUGCCACAAAGCUUGAGAGCAUAUUCGGAUGCAGAGGCGGCAGCCUUCGGUGGCGCGAUAGCGCCAAUGUUCUCAACUAUGACACGCAAAACGCGUGCUCCGUUGAAUGGAGUUUAUCAUG	-1.32
